Reference: article PMC3005221 (Biochemistry, 2010)
[ ]: non-standard residue; d: D form. The star is where a group is joined. FITC = O=C1OC2(c3ccc(O)cc3Oc3cc(O)ccc32)c2ccc(NC(=S)*)cc21; Abu = CC[C@H](N)C(=O)O; βAla = NCCC(=O)O

B1: FITC-β-Ala-β-Ala-LQDGF (peptide)
peptide: {FITC-βAla-βAla}-LQDGF-OH
SMILES: CC(C)C[C@H](NC(=O)CCNC(=O)CCNC(=S)Nc1ccc2c(c1)C(=O)OC21c2ccc(O)cc2Oc2cc(O)ccc21)C(=O)N[C@@H](CCC(N)=O)C(=O)N[C@@H](CC(=O)O)C(=O)NCC(=O)N[C@@H](Cc1ccccc1)C(=O)O
B2: FITC-β-Ala-β-Ala-YGFGG (peptide)
peptide: {FITC-βAla-βAla}-YGFGG-OH
SMILES: O=C(O)CNC(=O)CNC(=O)[C@H](Cc1ccccc1)NC(=O)CNC(=O)[C@H](Cc1ccc(O)cc1)NC(=O)CCNC(=O)CCNC(=S)Nc1ccc2c(c1)C(=O)OC21c2ccc(O)cc2Oc2cc(O)ccc21
B3: FITC-β-Ala-β-Ala-IAKGG (peptide)
peptide: {FITC-βAla-βAla}-IAKGG-OH
SMILES: CC[C@H](C)[C@H](NC(=O)CCNC(=O)CCNC(=S)Nc1ccc2c(c1)C(=O)OC21c2ccc(O)cc2Oc2cc(O)ccc21)C(=O)N[C@@H](C)C(=O)N[C@@H](CCCCN)C(=O)NCC(=O)NCC(=O)O
B4: FITC-β-Ala-β-Ala-NALGG (peptide)
peptide: {FITC-βAla-βAla}-NALGG-OH
SMILES: CC(C)C[C@H](NC(=O)[C@H](C)NC(=O)[C@H](CC(N)=O)NC(=O)CCNC(=O)CCNC(=S)Nc1ccc2c(c1)C(=O)OC21c2ccc(O)cc2Oc2cc(O)ccc21)C(=O)NCC(=O)NCC(=O)O
B5: FITC-β-Ala-β-Ala-YUIGG (peptide)
chain: {FITC-βAla-βAla}-Y[Abu]IGG-OH
SMILES: CC[C@H](NC(=O)[C@H](Cc1ccc(O)cc1)NC(=O)CCNC(=O)CCNC(=S)Nc1ccc2c(c1)C(=O)OC21c2ccc(O)cc2Oc2cc(O)ccc21)C(=O)N[C@H](C(=O)NCC(=O)NCC(=O)O)[C@@H](C)CC
B6: FITC-β-Ala-β-Ala-RGMGG (peptide)
peptide: {FITC-βAla-βAla}-RGMGG-OH
SMILES: CSCC[C@H](NC(=O)CNC(=O)[C@H](CCCNC(=N)N)NC(=O)CCNC(=O)CCNC(=S)Nc1ccc2c(c1)C(=O)OC21c2ccc(O)cc2Oc2cc(O)ccc21)C(=O)NCC(=O)NCC(=O)O

Assays:
Assay in all cases: fluorescence polarisation
[1] = target: (His)6-tagged Ubp-M BUZ domain (UniProt Q9Y5T5 22-143)
Target sequence in this assay (Q9Y5T5 22-143): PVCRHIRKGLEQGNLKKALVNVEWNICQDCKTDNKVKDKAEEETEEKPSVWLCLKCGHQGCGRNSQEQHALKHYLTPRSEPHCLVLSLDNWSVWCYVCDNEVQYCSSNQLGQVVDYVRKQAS

[2] = target: T1, HDAC6 BUZ domain (without GST tag) (UniProt Q9UBN7 1059-1215)
T1 sequence (looked up): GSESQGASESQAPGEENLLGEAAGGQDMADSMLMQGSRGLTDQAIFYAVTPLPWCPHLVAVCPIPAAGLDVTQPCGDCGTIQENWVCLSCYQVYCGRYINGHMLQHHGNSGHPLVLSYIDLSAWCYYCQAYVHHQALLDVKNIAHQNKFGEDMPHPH

GST-HDAC6 BUZ = GST-HDAC6 BUZ (UniProt Q9UBN7 1059-1215)
[3] = target: (His)6-tagged Ubp-M BUZ domain (UniProt Q9Y5T5 22-143); remark: listed apart in the source
Target sequence in this assay (Q9Y5T5 whole entry, looked up, the tested form may be a part): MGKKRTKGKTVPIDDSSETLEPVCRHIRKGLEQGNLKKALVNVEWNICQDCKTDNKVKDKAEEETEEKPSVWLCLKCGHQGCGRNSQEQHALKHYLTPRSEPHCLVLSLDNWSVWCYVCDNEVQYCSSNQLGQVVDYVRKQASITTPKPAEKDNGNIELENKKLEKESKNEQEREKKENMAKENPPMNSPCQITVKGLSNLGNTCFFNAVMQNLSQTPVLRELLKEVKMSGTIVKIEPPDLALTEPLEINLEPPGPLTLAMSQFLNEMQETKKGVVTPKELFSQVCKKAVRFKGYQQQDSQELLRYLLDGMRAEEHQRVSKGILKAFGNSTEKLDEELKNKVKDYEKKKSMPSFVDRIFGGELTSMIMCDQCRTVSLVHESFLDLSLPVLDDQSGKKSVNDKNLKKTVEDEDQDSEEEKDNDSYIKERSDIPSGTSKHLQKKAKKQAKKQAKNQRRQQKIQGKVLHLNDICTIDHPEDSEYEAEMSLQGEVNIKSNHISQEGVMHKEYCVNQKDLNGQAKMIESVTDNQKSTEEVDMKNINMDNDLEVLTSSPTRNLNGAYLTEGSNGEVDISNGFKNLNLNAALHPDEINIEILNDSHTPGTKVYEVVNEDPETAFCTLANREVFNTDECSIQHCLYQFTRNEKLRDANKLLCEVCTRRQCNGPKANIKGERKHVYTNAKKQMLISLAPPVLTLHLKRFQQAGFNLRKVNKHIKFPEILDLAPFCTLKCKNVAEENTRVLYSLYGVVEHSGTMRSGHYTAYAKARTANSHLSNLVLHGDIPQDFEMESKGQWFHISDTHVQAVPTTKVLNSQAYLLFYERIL

Row | Binder | Kd [1] | also measured
1 | B1 | > 150 µM | –
2 | B2 | 13 ± 3 µM | –
3 | B3 | 12 ± 3 µM | –
4 | B4 | 33 ± 7 µM | Kd [2]: 0.23 ± 0.02 µM
5 | B5 | – | Kd (GST-HDAC6 BUZ): 1.3 ± 0.1 µM; Kd [3]: 12 ± 2 µM
6 | B6 | 17 ± 3 µM | –
